Article PMC3082007, “The microRNA cluster miR-106b~25 regulates adult neural stem/progenitor cell proliferation and neuronal differentiation”

Target: FoxO3-GST (human, UniProt O43524 1-673)
Assay: EMSA; 5 nM probe; 50 ng/ul protein; Binding Buffer as printed: 200 mM Tris-HCl pH 7.5, 200 mM KCl, 200 mM MgCl2, 2% NP-40, 10% glycerol, 5 mM DTT, 500 ng/ul salmon sperm DNA (possibly a stock concentration); room temperature 20 min; 4% native PAGE at 4 C
Conditions: protein: recombinant; tags: GST; label: 32P; blunt

FoxO3-GST, sequence (O43524 whole entry): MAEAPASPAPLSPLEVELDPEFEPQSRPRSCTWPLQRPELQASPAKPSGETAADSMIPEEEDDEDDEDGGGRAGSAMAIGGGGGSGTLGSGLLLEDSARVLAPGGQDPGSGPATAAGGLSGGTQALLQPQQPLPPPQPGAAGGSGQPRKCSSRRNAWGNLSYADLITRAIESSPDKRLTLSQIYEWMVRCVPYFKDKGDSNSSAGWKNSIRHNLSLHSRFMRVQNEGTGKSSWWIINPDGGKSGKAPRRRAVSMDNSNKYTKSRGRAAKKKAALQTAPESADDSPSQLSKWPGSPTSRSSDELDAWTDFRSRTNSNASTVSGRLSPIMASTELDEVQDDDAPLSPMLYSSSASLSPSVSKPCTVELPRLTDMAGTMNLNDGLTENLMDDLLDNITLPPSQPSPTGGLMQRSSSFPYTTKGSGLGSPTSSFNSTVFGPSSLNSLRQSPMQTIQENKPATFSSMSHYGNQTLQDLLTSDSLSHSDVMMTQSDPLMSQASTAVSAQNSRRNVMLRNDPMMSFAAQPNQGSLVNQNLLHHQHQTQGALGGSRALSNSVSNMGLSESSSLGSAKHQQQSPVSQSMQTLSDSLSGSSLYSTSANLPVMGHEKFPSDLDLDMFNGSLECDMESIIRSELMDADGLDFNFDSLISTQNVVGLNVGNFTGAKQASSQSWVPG

B1: FHRE WT (miR-106b~25/Mcm7 intron 1) (dsDNA)
DNA 1: GGCCCATGTGCTTCTTTGTTTACTAAGAGCGGAAGCAG
DNA 2: CTGCTTCCGCTCTTAGTAAACAAAGAAGCACATGGGCC
- binding result: binds
